We go through four molecules from paper PMC3227653 (PLoS ONE, 2011).

B1: A4.2m (VHH)
VHH: QVKLEESGGGLVQAGGSLRLSCAASGRTFNTLSMGWFRQAPGKEREFVCAVSRSGGSTYYADSVKGRFTCSRDNAKNTVYLQMNSLKPEDTAVYYCAAAATKSNTTAYRLSFDYWGQGTQVTVSS
B2: A20.1m (VHH)
VHH: QVQLVESGGGLAQAGGSLRLSCAASGRTFSMDPMAWFRQPPGKEREFVCAGSSTGRTTYYADSVKGRFTCSRDNAKNTVYLQMNSLKPEDTAVYYCAAAPYGANWYRDEYAYWGQGTQVTVSS
B3: A5.1m (VHH)
VHH: QVKLEESGGGLVQAGGSLRLSCAASGRTFSMYRMGWFRQAPGKEREFVCVITRNGSSTYYADSVKGRFTCSRDNAKNTVYLQMNSLKPEDTALYYCAATSGSSYLDAAHVYDYWGQGTQVTVSS
B4: A26.8m (VHH)
VHH: QVKLEESGGGLVQAGGSLRLSCAASERTFSRYPVAWFRQAPGAEREFVCVISSTGTSTYYADSVKGRFTCSRDNAKVTVYLQMNNLKREDTAVYFCAVNSQRTRLQDPNEYDYWGQGTQVTVSS

For the experiment, the target named is Clostridium difficile toxin A (Clostridioides difficile …, UniProt P16154). Kind of experiment: SPR. As to conditions: both partners purified.
As usually defined, the Kd is the free concentration of one partner at which half of the binding sites on the other are occupied at equilibrium, for simple one-to-one binding. A high value points to weaker binding. A word on the koff: it is the rate constant with which the complex falls apart. Read a low koff as a long-lived complex. In general, kon refers to the rate constant with which the complex forms. Read a low kon as slower complex formation. As to B1, the Kd was 20 nM, the koff stood at 0.019 s⁻¹ and the kon is 930000 M⁻¹ s⁻¹.
The molecule B2 yielded a Kd of 9.2 nM, a koff of 0.0059 s⁻¹ and a kon of 640000 M⁻¹ s⁻¹.
Taken in the same sequence, the figures for B3 were 17 nM, 0.016 s⁻¹ and 950000 M⁻¹ s⁻¹.
For B4, in that order: 28 nM, 0.028 s⁻¹ and 1e+06 M⁻¹ s⁻¹.
